For assay [1], the target named is fluorescein-labelled Pdcd4 N-terminal domain (residues 1-156) (human) (UniProt Q53EL6). Kind of assay: fluorescence polarisation; fluorescence anisotropy binding assay: 20 nM FL-Pdcd4-NTD, 40S titrated, with or without eIFs (1 uM eIFs 1, 1A, 5, 550 nM eIF2-TC and eIF3); 20 mM Tris-acetate pH 7.5, 70 mM KCl, 2 mM MgCl2, 0.1 mM spermidine, 1 mM DTT, 10% glycerol, 0.1 mg/ml BSA, 0.5 mM ATP-Mg; 37 C 10 min, then over 20 min at room temperature; fraction bound fitted with a quadratic equation. A general note: In fluorescence polarisation assays a small probe gives low polarisation when free and higher when bound to something large.

In assay [2] the target is 40S small ribosomal subunit (salt-washed) (human) (UniProt P23396). In words: fluorescence polarisation; anisotropy competition: 20 nM FL-Pdcd4-NTD + 50 nM 40S competed off by unlabeled Pdcd4 or its variants; 37 °C 10 min, then over 20 min at room temperature; buffer of the native gel assay.
Assay [3] shares this target. In words: fluorescence polarisation; fluorescence anisotropy competition assay in solution: 20 nM FL-Pdcd4-NTD + 50 nM 40S competed off by 0-1000 nM unlabeled Pdcd4 or its variants; Kd of the labeled NTD set to 5 nM; same buffer as the native gel assay; 10 min at 37 C, then over 20 min at room temperature.
The target is the same in assay [4]. In words: fluorescence polarisation; anisotropy binding: 20 nM FL-Pdcd4-NTD with various amounts of 40S in the presence of saturating eIF1 and eIF1A.
Assay [5] concerns the target 43S pre-initiation complex (40S + eIFs 1, 1A, 5, 3j, eIF2-TC and eIF3) (human) (UniProt P23396). In words: fluorescence polarisation; anisotropy binding: 20 nM FL-Pdcd4-NTD with various amounts of 40S, in the absence or presence of 43S components (1 μM eIFs 1, 1A, 5, 550 nM eIF2-TC and eIF3); buffer of the native gel assay.
Assay [6] shares this target. Kind of assay: native gel or EMSA; 100 nM fluorescein-labeled Pdcd4 with 250 nM 40S, 43S or 48S; 37 °C 10 min; 20 mM Tris-acetate pH 7.5, 70 mM KCl, 2 mM MgCl2, 0.1 mM spermidine, 1 mM DTT, 10% glycerol, 0.1 mg/ml BSA, 0.5 mM ATP-Mg; 1% agarose gel in THEM buffer, 4 °C.

“And” between values parts separate entries of the source, which are not always exact repeats. Identical values can stand only once. Some results are limits rather than exact numbers.

Turning to “40S subunit with saturating eIF1 and eIF1A (from UniProt P23396 1-243; P41567 1-113; P47813 1-144) (complex)”, in assay [1], the Kd (as a rule, a measure of binding affinity in units of concentration) came out at 71 nM. That is a double-digit nanomolar value.

The substance “43S pre-initiation complex (40S with eIF1, eIF1A, eIF5, eIF2 ternary complex and eIF3) (from UniProt P23396 1-243; P41567 1-113; P47813 1-144; P55010 1-431; P55884 158-814; O75821 1-320; Q13347 1-325; O75822 1-258)” registered a Kd in assay [1] of 3000 nM.

As to “Pdcd4 (programmed cell death 4), wild type, residues 1-469 (from UniProt Q53EL6 1-469) (natural protein)”, the Ki (in general, a dissociation constant, usually derived from enzyme kinetics or from competition with a known ligand) in assay [2] came to 23 nM.

“Pdcd4 K114A/K115A (from UniProt Q53EL6 1-469) (natural protein)”: the Ki in assay [3] is 1600 nM and 1380 nM and 1490 nM.

As to “Pdcd4 V123A/W124A (from UniProt Q53EL6 1-469) (natural protein)”, the Ki in assay [3] was 864 nM and 791 nM and 828 nM.

With “Pdcd4-NTD (residues 1-156), unlabeled (from UniProt Q53EL6 1-156) (domain or fragment)”, the Ki in assay [2] was 21 nM; in assay [3], 21.2 nM and 20.3 nM and 20.1 nM.

On to “fluorescein-labeled Pdcd4-NTD (FL-Pdcd4-NTD, residues 1-156) (from UniProt Q53EL6 1-156) (domain or fragment)”, for which the fold reduction in affinity (against the 40S alone) in assay [4] was more than 10 fold; in assay [5], more than 100 fold. Further, the percent binding compared to the 40S lane in assay [6] is less than 20%.

Regarding “fluorescently modified recombinant Pdcd4 (FL-Pdcd4), full length (from UniProt Q53EL6 1-469) (natural protein)”, the percent binding compared to the 40S lane in assay [6] is less than 20%.

With “human 40S small ribosomal subunit (from UniProt P23396 1-243) (complex)”, the Kd in assay [1] turned out to be 5 nM.

For “wild-type Pdcd4 (residues 1-469), unlabeled (from UniProt Q53EL6 1-469) (natural protein)”, the Ki in assay [3] is 24.7 nM and 21 nM and 23.3 nM.

Values taken from PMC11310195.
